Test results taken from the supplement of paper PMC11246515.
± gives the standard deviation of the averaged measurements.

Assay: total protein half-life in vivo (active degradation + dilution); higher = more stable protein
[1] = E. coli NCM3722 delta-clpP delta-lon delta-hslV, growth: N-lim chemostat, doubling time 6 h
[2] = E. coli NCM3722 delta-clpP, growth: N-lim chemostat, doubling time 6 h
[3] = E. coli NCM3722 delta-hslV, growth: N-lim chemostat, doubling time 6 h
[4] = E. coli NCM3722 delta-lon, growth: N-lim chemostat, doubling time 6 h
[5] = E. coli NCM3722 delta-smpB, growth: N-lim chemostat, doubling time 6 h
[6] = wild type E. coli NCM3722, growth: C-lim chemostat, doubling time 3 h
[7] = wild type E. coli NCM3722, growth: C-lim chemostat, doubling time 6 h
[8] = wild type E. coli NCM3722, growth: C-lim chemostat, doubling time 12 h
[9] = wild type E. coli NCM3722, growth: N-lim chemostat, doubling time 6 h
[10] = wild type E. coli NCM3722, growth: N-lim chemostat, doubling time 12 h
[11] = wild type E. coli NCM3722, growth: P-lim chemostat, doubling time 6 h
[12] = wild type E. coli NCM3722, growth: P-lim chemostat, doubling time 12 h

MSKRRVVVTGLGMLSPVGNTVESTWKALLAGQSGISLIDHFDTSAYATKFAGLVKDFNCEDIISRKEQRKMDAFIQYGIVAGVQAMQDSGLEITEENATRIGAAIGSGIGGLGLIEENHTSLMNGGPRKISPFFVPSTIVNMVAGHLTIMYGLRGPSISIATACTSGVHNIGHAARIIAYGDADVMVAGGAEKASTPLGVGGFGAARALSTRNDNPQAASRPWDKERDGFVLGDGAGMLVLEEYEHAKKRGAKIYAELVGFGMSSDAYHMTSPPENGAGAALAMANALRDAGIEASQIGYVNAHGTSTPAGDKAEAQAVKTIFGEAASRVLVSSTKSMTGHLLGAAGAVESIYSILALRDQAVPPTINLDNPDEGCDLDFVPHEARQVSGMEYTLCNSFGFGGTNGSLIFKKI [P0AAI5]
total protein half-life in vivo [1]: 6.45 ± 1.9 h
total protein half-life in vivo [2]: 4.94 ± 0.21 h
total protein half-life in vivo [3]: 4.87 ± 0.28 h
total protein half-life in vivo [4]: 5.15 ± 0.41 h
total protein half-life in vivo [5]: 4.89 ± 0.14 h
total protein half-life in vivo [6]: 3.121 ± 0.02 h
total protein half-life in vivo [7]: 6.09 ± 0.35 h
total protein half-life in vivo [8]: 12.1 ± 0.42 h
total protein half-life in vivo [9]: 4.89 ± 0.34 h
total protein half-life in vivo [10]: 8.33 ± 0.17 h
total protein half-life in vivo [11]: 6.13 ± 0.29 h
total protein half-life in vivo [12]: 12.6 ± 0.18 h

MTPLLELKDIRRSYPAGDEQVEVLKGISLDIYAGEMVAIVGASGSGKSTLMNILGCLDKATSGTYRVAGQDVATLDADALAQLRREHFGFIFQRYHLLSHLTAEQNVEVPAVYAGLERKQRLLRAQELLQRLGLEDRTEYYPAQLSGGQQQRVSIARALMNGGQVILADEPTGALDSHSGEEVMAILHQLRDRGHTVIIVTHDPQVAAQAERVIEIRDGEIVRNPPAIEKVNVTGGTEPVVNTVSGWRQFVSGFNEALTMAWRALAANKMRTLLTMLGIIIGIASVVSIVVVGDAAKQMVLADIRSIGTNTIDVYPGKDFGDDDPQYQQALKYDDLIAIQKQPWVASATPAVSQNLRLRYNNVDVAASANGVSGDYFNVYGMTFSEGNTFNQEQLNGRAQVVVLDSNTRRQLFPHKADVVGEVILVGNMPARVIGVAEEKQSMFGSSKVLRVWLPYSTMSGRVMGQSWLNSITVRVKEGFDSAEAEQQLTRLLSLRHGKKDFFTWNMDGVLKTVEKTTRTLQLFLTLVAVISLVVGGIGVMNIMLVSVTERTREIGIRMAVGARASDVLQQFLIEAVLVCLVGGALGITLSLLIAFTLQLFLPGWEIGFSPLALLLAFLCSTVTGILFGWLPARNAARLDPVDALARE
total protein half-life in vivo [1]: 6.72 ± 0.55 h
total protein half-life in vivo [2]: 6.57 ± 0.25 h
total protein half-life in vivo [3]: 6.77 ± 0.99 h
total protein half-life in vivo [4]: 6.57 ± 1.3 h
total protein half-life in vivo [5]: 5.95 ± 0.35 h
total protein half-life in vivo [6]: 3.15 ± 0.084 h
total protein half-life in vivo [7]: 5.92 ± 0.28 h
total protein half-life in vivo [8]: 12.4 ± 0.29 h
total protein half-life in vivo [9]: 6.2 ± 0.35 h
total protein half-life in vivo [10]: 12.6 ± 0.13 h
total protein half-life in vivo [11]: 6.45 ± 0.26 h
total protein half-life in vivo [12]: 11.9 ± 0.64 h

MNRFIMANSQQCLGCHACEIACVMAHNDEQHVLSQHHFHPRITVIKHQQQRSAVTCHHCEDAPCARSCPNGAISHVDDSIQVNQQKCIGCKSCVVACPFGTMQIVLTPVAAGKVKATAHKCDLCAGRENGPACVENCPADALQLVTDVALSGMAKSRRLRTARQEHQPWHASTAAQEMPVMSKVEQMQATPARGEPDKLAIEARKTGFDEIYLPFRADQAQREASRCLKCGEHSVCEWTCPLHNHIPQWIELVKAGNIDAAVELSHQTNTLPEITGRVCPQDRLCEGACTIRDEHGAVTIGNIERYISDQALAKGWRPDLSHVTKVDKRVAIIGAGPAGLACADVLTRNGVGVTVYDRHPEIGGLLTFGIPSFKLDKSLLARRREIFSAMGIHFELNCEVGKDVSLDSLLEQYDAVFVGVGTYRSMKAGLPNEDAPGVYDALPFLIANTKQVMGLEELPEEPFINTAGLNVVVLGGGDTAMDCVRTALRHGASNVTCAYRRDEANMPGSKKEVKNAREEGANFEFNVQPVALELNEQGHVCGIRFLRTRLGEPDAQGRRRPVPVEGSEFVMPADAVIMAFGFNPHGMPWLESHGVTVDKWGRIIADVESQYRYQTTNPKIFAGGDAVRGADLVVTAMAEGRHAAQGIIDWLGVKSVKSH
total protein half-life in vivo [1]: 5.28 h
total protein half-life in vivo [8]: 1.34 h

MKISRLGEAPDYRFSLANERTFLAWIRTALGFLAAGVGLDQLAPDFATPVIRELLALLLCLFSGGLAMYGYLRWLRNEKAMRLKEDLPYTNSLLIISLILMVVAVIVMGLVLYAG [P0ADM0]
total protein half-life in vivo [7]: 5.742 ± 0.053 h
total protein half-life in vivo [8]: > 16 h
total protein half-life in vivo [9]: 5.98 h
total protein half-life in vivo [11]: 5.91 h
total protein half-life in vivo [12]: 5 h

MQKLKQQVFEANMELPRYGLVTFTWGNVSAIDRERGLVVIKPSGVAYETMKAADMVVVDMSGKVVEGEYRPSSDTATHLELYRRYPSLGGIVHTHSTHATAWAQAGLAIPALGTTHADYFFGDIPCTRGLSEEEVQGEYELNTGKVIIETLGNAEPLHTPGIVVYQHGPFAWGKDAHDAVHNAVVMEEVAKMAWIARGINPQLNHIDSFLMNKHFMRKHGPNAYYGQK
total protein half-life in vivo [1]: 4.02 ± 1.1 h

MQKIVIVANGAPYGSESLFNSLRLAIALREQESNLDLRLFLMSDAVTAGLRGQKPGEGYNIQQMLEILTAQNVPVKLCKTCTDGRGISTLPLIDGVEIGTLVELAQWTLSADKVLTF [P0AB52]
total protein half-life in vivo [1]: 5.73 ± 0.71 h
total protein half-life in vivo [2]: 5.32 ± 0.28 h
total protein half-life in vivo [3]: 4.94 ± 1.6 h
total protein half-life in vivo [4]: 5.96 ± 0.57 h
total protein half-life in vivo [5]: 4.81 ± 0.086 h
total protein half-life in vivo [6]: 2.64 ± 0.25 h
total protein half-life in vivo [7]: 6.4 ± 1.1 h
total protein half-life in vivo [8]: 13.2 ± 0.93 h
total protein half-life in vivo [9]: 5.55 ± 0.19 h
total protein half-life in vivo [10]: 10.1 ± 0.94 h
total protein half-life in vivo [11]: 5.43 h
total protein half-life in vivo [12]: 12.5 ± 1.7 h
